Test results: US9290553B2, “Peptides that modulate complex SASPase-FLG2” (L'OREAL, priority 2010, dated 2016)
Each block holds one molecule with its values, some of them ahead of it.

Experiments:
SASPase_28 = target: T1, SASPase_28 (Homo sapiens, UniProt Q53RT3); test: SASPase proteolytic activity assay with Dabcyl-QIDRIMEK-Edans substrate; format: biochemical; settings: for ability to increase the catalytic activity of SASPase: same enzymatic assay, FLG2-Hs replaced with the synthesized peptide
T1 construct: made in house
T1 sequence (Q53RT3 85-343): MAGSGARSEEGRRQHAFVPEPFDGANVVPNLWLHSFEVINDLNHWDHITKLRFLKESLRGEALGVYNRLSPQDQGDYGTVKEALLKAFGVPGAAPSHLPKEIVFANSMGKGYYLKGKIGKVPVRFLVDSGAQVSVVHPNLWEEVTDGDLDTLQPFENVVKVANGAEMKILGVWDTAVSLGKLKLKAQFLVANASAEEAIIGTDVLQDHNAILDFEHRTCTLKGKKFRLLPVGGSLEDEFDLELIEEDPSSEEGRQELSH
Description: A recombinant 28 kDa SASPase (SASPase_28) constituted of the amino acids extending from positions 85 to 343 of the sequence represented by the reference Q53RT3 (Uniprot/Swissprot Ref.) was prepared as described by Bernard et al., (J. Invest. Dermatol., 2005, 125: 278-287).
SASPase_28 at 0.025 mg/ml is in the presence of a colorimetric substrate, Dabcyl-QIDRIMEK-Edans, at 0.01 mM (Production Jerini Peptide Ref. D17: JPT Peptide Technologies GmbH) in a PBS buffer.
The hydrolysis of the colorimetric substrate by the activated SASPase results in the separation of the EDANS fluorochrome and of its deactivator (or quencher) Dabcyl, and in an increase in the EDANS fluorescence.
The fluorescent signal is measured at λex 340 nm/λem 490 nm. The fluorescence is read every 10 minutes for 1 h 30 min, at 37° C., with a SPECTRAMAX M5e (Molecular Devices).
The previous enzymatic assay was repeated with FLG2-Hs being replaced with each of the peptides thus prepared.

SASPase = target: T2, SASPase (Homo sapiens, UniProt Q53RT3); test: double-hybrid interaction of filaggrin-2 fragments with SASPase; format: binding; settings: N-terminal S100 domain of filaggrin-2, amino acids 2-95
T2 construct: expressed in transfected cells; host or cells: double-hybrid system
T2 sequence (Q53RT3 1-259 isoform Q53RT3-2): T1 sequence (Q53RT3 85-343)
Description: The interaction with a SASPase was found using, as bait, the filaggrin-2 fragment identified as interacting with the SASPase_28 and SASPase_37 sequences, and corresponding to amino acids 2-213 of the Genbank sequence: gi:62122916.
The sequence was fused to the DNA-binding domain, LexA, according to the orientation N-LexA-FLG22-213-C.
(§1) The prey sequences were fused to the Ga14 transcription-activating domain.
(§2) Supplementary experiments were carried out in order to reduce and identify the size of the sequences responsible for this interaction between SASPase_28 and filaggrin-2.

filaggrin-2 (FLG2) = target: T3, filaggrin-2 (FLG2) (Homo sapiens, UniProt Q5D862); test: double-hybrid interaction of SASPase_28 fragments with filaggrin-2; format: binding; settings: N-terminal fragment of SASPase_28, amino acids 11-86
T3 construct: expressed in transfected cells; host or cells: double-hybrid system
T3 sequence (Q5D862 2-213): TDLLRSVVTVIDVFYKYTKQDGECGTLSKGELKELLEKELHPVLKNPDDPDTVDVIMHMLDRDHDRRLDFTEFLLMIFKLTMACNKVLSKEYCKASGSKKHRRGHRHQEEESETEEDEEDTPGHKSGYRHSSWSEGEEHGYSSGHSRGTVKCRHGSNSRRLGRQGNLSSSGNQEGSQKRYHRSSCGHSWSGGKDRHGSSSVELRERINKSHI
Description: A first study using the “double-hybrid” technique was carried out using the whole 28 kDa SASPase protein in its wild-type form (SASPase_28, GENBANK Ref. gi16553767) and in its form mutated at the catalytic aspartic acid (SASPase_28D128A), and also the 37 kDa SASPase form (SASPase_37), in its whole form (GENBANK Ref. gi189409121), and a fragment corresponding to the N-terminal end of 84 amino acids of the protein relative to the sequence of SASPase_28 ([…]).
The SASPase sequences were fused to a DNA-binding domain, LexA, according to the orientation N-LexA-SASPase-C, so as to keep the C-terminal end of the SASPase free, with the exception of the SASPase_28N84 sequence which is fused to the LexA domain according to the orientation N-SASPase_28N84-LexA-C.
as §1, §2

Molecule: SEQ ID NO: 14: peptide of 8 to 20 amino acids synthesized from positions 71 to 90 of FLG2, SEQ ID NO: 9 (TEFLLMIFKLTMACNK; /mol_type=“protein” /organism=“Homo sapiens”; listed as Homo sapiens)
ability to increase the catalytic activity of SASPase (SASPase_28): particularly significant ability to increase

Molecule: SEQ ID NO: 13: peptide of 8 to 20 amino acids synthesized from positions 71 to 90 of FLG2, SEQ ID NO: 9 (LMIFKLTMACNKV; /mol_type=“protein” /organism=“Homo sapiens”; listed as Homo sapiens)
ability to increase the catalytic activity of SASPase (SASPase_28): particularly significant ability to increase

Molecule: SEQ ID NO: 15: peptide of 8 to 20 amino acids synthesized from positions 71 to 90 of FLG2, SEQ ID NO: 9 (TEFLLMIF; /mol_type=“protein” /organism=“Homo sapiens”; listed as Homo sapiens)
ability to increase the catalytic activity of SASPase (SASPase_28): particularly significant ability to increase

Molecule: SEQ ID NO: 12: peptide of 8 to 20 amino acids synthesized from positions 71 to 90 of FLG2, SEQ ID NO: 9 (LMIFKLTMACNKVLS; /mol_type=“protein” /organism=“Homo sapiens”; listed as Homo sapiens)
ability to increase the catalytic activity of SASPase (SASPase_28): particularly significant ability to increase

Molecule: SEQ ID NO: 11: peptide of 8 to 20 amino acids synthesized from positions 71 to 90 of FLG2, SEQ ID NO: 9 (EFLLMIFKLTMACNK; /mol_type=“protein” /organism=“Homo sapiens”; listed as Homo sapiens)
ability to increase the catalytic activity of SASPase (SASPase_28): particularly significant ability to increase

Molecule: SEQ ID NO: 10: peptide of 8 to 20 amino acids synthesized from positions 71 to 90 of FLG2, SEQ ID NO: 9 (FTEFLLMIFKLTMACNKVLS; /mol_type=“protein” /organism=“Homo sapiens”; listed as Homo sapiens)
ability to increase the catalytic activity of SASPase (SASPase_28): particularly significant ability to increase

interaction with SASPase (SASPase): involved in the interaction with SASPase
B1: SEQ ID NO: 9: amino acid sequence extending from positions 2 to 95 of filaggrin-2 Q5D862 (N-terminal S100 domain) (protein, listed as Homo sapiens)
chain: TDLLRSVVTVIDVFYKYTKQDGECGTLSKGELKELLEKELHPVLKNPDDPDTVDVIMHMLDRDHDRRLDFTEFLLMIFKLTMACNKVLSKEYCKA
modifications: /mol_type=“protein” /organism=“Homo sapiens”

interaction with FLG2 (filaggrin-2 (FLG2)): sufficient for the interaction with FLG2
B2: SEQ ID NO: 16: amino acid sequence extending from positions 97 to 173 of the Q53RT3 sequence of SASPase (protein, listed as Homo sapiens)
chain: RQHAFVPEPFDGANVVPNLWLHSFEVINDLNHWDHITKLRFLKESLRGEALGVYNRLSPQDQGDYGTVKEALLKAFG
modifications: /mol_type=“protein” /organism=“Homo sapiens”

B3: FLG2-Hs: recombinant filaggrin-2, positions 2 to 213 of Q5D862, fused to a Thioredoxin-His-S.Tag affinity label (protein)
chain: T3 sequence (Q5D862 2-213)
modifications: left off: large carriers
enzymatic activity of SASPase (SASPase_28; SASPase_28 0.025 mg/ml, substrate 0.01 mM, PBS, 37° C., FLG2-Hs at 0.01 to 10 times the SASPase concentration): significantly increased
